Laboratory results: IntAct's records for PubMed 17254968

B1: Cellular tumor antigen p53 (Mus musculus), P02340 (parent)
chain: MTAMEESQSDISLELPLSQETFSGLWKLLPPEDILPSPHCMDDLLLPQDVEEFFEGPSEALRVSGAPAAQDPVTETPGPVAPAPATPWPLSSFVPSQKTYQGNYGFHLGFLQSGTAKSVMCTYSPPLNKLFCQLAKTCPVQLWVSATPPAGSRVRAMAIYKKSQHMTEVVRRCPHHERCSDGDGLAPPQHLIRVEGNLYPEYLEDRQTFRHSVVVPYEPPEAGSEYTTIHYKYMCNSSCMGGMNRRPILTIITLEDSSGNLLGRDSFEVRVCACPGRDRRTEEENFRKKEVLCPELPPGSAKRALPTCTSASPPQKKKPLDGEYFTLKIRGRKRFEMFRELNEALELKDAHATEESGDSRAHSSYLKTKKGQSTSRHKKTMVKKVGPDSD

Variants of: B1
Details: with mapk5_mouse Mapkapk5, O54992
mapk5_mouse Mapkapk5, O54992, sequence (O54992 whole entry): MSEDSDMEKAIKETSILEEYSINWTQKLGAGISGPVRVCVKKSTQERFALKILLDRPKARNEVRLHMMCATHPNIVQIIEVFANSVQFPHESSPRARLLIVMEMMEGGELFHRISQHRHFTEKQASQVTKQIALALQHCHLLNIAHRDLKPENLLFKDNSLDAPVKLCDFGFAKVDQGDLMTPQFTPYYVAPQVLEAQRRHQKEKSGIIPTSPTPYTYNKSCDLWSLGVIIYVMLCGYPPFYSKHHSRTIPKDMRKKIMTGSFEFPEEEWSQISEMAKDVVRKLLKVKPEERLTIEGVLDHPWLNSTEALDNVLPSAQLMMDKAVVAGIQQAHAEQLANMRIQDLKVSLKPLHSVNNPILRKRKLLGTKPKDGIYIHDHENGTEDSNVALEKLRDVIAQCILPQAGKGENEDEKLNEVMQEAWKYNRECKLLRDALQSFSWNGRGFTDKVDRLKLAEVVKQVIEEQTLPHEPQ

Question: How did the “effect of a mutation on the interaction” value turn out when MTAMEESQSDISLELPLSQETFSGLWKLLPPEDILPDPHCMDDLLLPQDVEEFFEGPSEALRVSGAPAAQDPVTETPGPVAPAPATPWPLSSFVPSQKTYQGNYGFHLGFLQSGTAKSVMCTYSPPLNKLFCQLAKTCPVQLWVSATPPAGSRVRAMAIYKKSQHMTEVVRRCPHHERCSDGDGLAPPQHLIRVEGNLYPEYLEDRQTFRHSVVVPYEPPEAGSEYTTIHYKYMCNSSCMGGMNRRPILTIITLEDSSGNLLGRDSFEVRVCACPGRDRRTEEENFRKKEVLCPELPPGSAKRALPTCTSASPPQKKKPLDGEYFTLKIRGRKRFEMFRELNEALELKDAHATEESGDSRAHSSYLKTKKGQSTSRHKKTMVKKVGPDSD [S37D] was run?
Answer: disrupting interaction
